For one data set, the target named is T1, Cas12i2 E563R (E563R).
T1 chain: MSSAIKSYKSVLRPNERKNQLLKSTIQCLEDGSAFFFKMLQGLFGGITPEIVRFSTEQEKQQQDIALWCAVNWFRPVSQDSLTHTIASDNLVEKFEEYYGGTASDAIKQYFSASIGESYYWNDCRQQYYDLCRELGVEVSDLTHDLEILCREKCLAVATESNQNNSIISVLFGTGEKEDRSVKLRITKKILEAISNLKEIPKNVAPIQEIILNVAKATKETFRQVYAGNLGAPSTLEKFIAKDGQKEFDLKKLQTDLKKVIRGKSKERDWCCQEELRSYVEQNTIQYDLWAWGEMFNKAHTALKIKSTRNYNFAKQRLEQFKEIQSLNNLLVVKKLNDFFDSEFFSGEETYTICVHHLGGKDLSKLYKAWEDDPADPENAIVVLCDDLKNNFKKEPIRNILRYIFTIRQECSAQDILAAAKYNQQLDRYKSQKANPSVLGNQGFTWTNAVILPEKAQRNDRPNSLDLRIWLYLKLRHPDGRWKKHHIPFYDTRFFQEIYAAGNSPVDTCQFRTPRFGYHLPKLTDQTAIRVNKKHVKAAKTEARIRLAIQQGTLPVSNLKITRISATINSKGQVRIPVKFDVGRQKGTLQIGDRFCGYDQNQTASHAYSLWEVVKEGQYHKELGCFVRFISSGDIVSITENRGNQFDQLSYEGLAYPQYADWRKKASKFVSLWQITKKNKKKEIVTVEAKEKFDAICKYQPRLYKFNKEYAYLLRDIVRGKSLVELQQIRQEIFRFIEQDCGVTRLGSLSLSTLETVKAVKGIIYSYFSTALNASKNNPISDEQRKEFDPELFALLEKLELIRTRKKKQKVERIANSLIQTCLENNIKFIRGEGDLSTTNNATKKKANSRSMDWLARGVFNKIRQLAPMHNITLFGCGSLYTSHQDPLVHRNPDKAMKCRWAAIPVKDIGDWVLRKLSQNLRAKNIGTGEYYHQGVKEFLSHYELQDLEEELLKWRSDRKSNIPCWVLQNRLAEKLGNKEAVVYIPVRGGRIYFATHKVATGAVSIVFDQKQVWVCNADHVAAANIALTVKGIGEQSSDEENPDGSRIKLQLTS
The data set is described as follows: cell_activity; HEK293T. As to the method:
(§1) HEK293T cells were cultured in DMEM (Gibco) comprising 1% penicillin-streptomycin (Gibco) and 10% fetal calf serum (Gibco). Cells were seeded in 24-well cell culture dishes (Corning) for 16 hours until cell density reached 70%. By using Lipofectamine 3000 (Invitrogen), 600 ng of plasmid encoding Cas12i2 protein and 300 ng of plasmid encoding crRNA were transfected into each 24-well cell culture dish. After approximately 68 hours of transfection, HEK293T cells to be subjected to fluorescence-activated cell sorting (FACS) were digested with trypsin-EDTA (0.05%) (Gibco). Cell sorting was performed using MoFlo XDP (Beckman Coulter) with GFP channel.
(§2) FACS-sorted GFP-positive HEK293T cells were lysed with buffer L and incubated at 55° C. for 3 h and then at 95° C. for 10 min. PCR amplification of dsDNA fragments comprising target sites in different genomic sites was performed using corresponding primers. For targeted deep sequencing, cell lysate was directly used as a template to directly amplify the target site through barcoded PCR. PCR products were purified and pooled into several libraries for high-throughput sequencing. The frequency (%) of indels was analyzed using CRISPResso2 software by calculating the ratio of reads comprising indels. In this application, the index of indel frequency (%) was uniformly used to compare and analyze gene editing efficiency. Reads with less than 0.05% of complete reads are discarded.

A further data set has as its target T2, Cas12i2 wild-type.
T2 chain: T1 chain with R563E
The data set is described as follows: cell_activity; HEK293T. As to the method: as §1, §2

In patent publication US20240425830, “ENGINEERED CAS12I NUCLEASE, EFFECTOR PROTEIN AND USE THEREOF” (Institute of Zoology, Chinese Academy of Sciences, published 2024) one finds activity data, which are given here for two molecules.

Residue numbers refer to the chain shown, from its start.

B1: crRNA CCR5-3 ; CCR5-3 target (ssRNA ; dsDNA)
RNA: AGAAAUCCGUCUUUCAUUGACGGAGGCCAAAGAAUUCCUGGAA
DNA 1: AGGCCAAAGAATTCCTGGAA
DNA 2: TTCCAGGAATTCTTTGGCCT
Consider B1, for which the activity in the data set with Cas12i2 E563R is 55.5 % indel; in the data set with Cas12i2 wild-type, 10.4 % indel.

B2: crRNA RNF2-7 ; RNF2-7 target (ssRNA ; dsDNA)
RNA: AGAAAUCCGUCUUUCAUUGACGGUUCAACAUAUCCAAACAAAU
DNA 1: TTCAACATATCCAAACAAAT
DNA 2: ATTTGTTTGGATATGTTGAA
Turning to B2, the results for the activity with Cas12i2 E563R and with Cas12i2 wild-type were 68.3 % indel and 11.7 % indel, respectively.
